PMC5496502 (Chemical Science, 2015)

Molecular target: MET-Fc: extracellular MET domain fused with human IgG1-Fc (human, UniProt P08581 25-932)
Experiment: AlphaScreen or HTRF

MET-Fc: extracellular MET domain fused with human IgG1-Fc, sequence (P08581 25-932): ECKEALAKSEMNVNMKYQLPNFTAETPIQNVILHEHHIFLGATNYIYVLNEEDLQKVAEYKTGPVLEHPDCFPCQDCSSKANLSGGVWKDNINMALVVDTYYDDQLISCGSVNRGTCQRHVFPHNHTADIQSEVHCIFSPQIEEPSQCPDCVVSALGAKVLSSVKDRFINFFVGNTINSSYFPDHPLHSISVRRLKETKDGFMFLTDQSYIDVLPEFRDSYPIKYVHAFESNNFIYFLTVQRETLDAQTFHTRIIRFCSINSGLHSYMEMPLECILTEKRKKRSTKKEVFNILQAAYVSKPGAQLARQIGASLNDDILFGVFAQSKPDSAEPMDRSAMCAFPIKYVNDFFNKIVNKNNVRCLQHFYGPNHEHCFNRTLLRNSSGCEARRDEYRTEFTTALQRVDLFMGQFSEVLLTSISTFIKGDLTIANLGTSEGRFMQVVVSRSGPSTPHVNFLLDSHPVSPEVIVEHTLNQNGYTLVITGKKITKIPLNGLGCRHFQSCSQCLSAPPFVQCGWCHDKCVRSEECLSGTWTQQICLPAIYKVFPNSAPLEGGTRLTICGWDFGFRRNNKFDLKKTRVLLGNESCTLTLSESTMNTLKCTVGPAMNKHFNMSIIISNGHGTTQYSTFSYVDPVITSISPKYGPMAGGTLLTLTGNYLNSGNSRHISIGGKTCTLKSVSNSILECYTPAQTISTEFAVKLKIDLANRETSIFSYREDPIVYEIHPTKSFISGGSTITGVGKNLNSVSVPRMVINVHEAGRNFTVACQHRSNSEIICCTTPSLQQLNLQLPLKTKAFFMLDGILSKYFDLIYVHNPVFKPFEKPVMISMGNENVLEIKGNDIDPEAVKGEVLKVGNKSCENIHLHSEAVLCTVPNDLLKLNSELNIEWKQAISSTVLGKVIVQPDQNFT

B1: K1B: synthetic K1 domain of HGF/SF (residues 125-209) with C-terminal Gly-Gly-Lys(biotin) (domain or fragment)
chain: IRNCIIGKGRSYKGTVSITKSGIKCQPWSSMIPHEHSFLPSSYRGKDLQENYCRNPRGEEGGPWCFTSNPEVRYEVCDIPQCSEVGGK
modifications: biotin on the side chain of the added C-terminal lysine; three disulfide bonds
Kd: ~16 nM
